Positions of bridges follow the written chain, without caps; N, C: chain ends. No end group written: not given here.
B1: 5-diphenylalanine long meditope ((Ac)CQFDA(Ph)2STRRLRCGGSK) (peptide)
peptide: Ac-CQFDASTRRLRCGGSK
modifications: disulfide 1-12 (inferred); not fully specified (residue 5); printed as (Ac)CQFDA(Ph)2STRRLRCGGSK

Legend:
[1] = target: Ile83Glu anti-HER2 memAb; test: SPR
[2] = target: anti-HER2 memAb (trastuzumab-based, meditope-enabled anti-HER2 antibody); test: SPR
Chain of anti-HER2 memAb (trastuzumab-based, meditope-enabled anti-HER2 antibody) (VH, as listed by the source, chain 1 of 2): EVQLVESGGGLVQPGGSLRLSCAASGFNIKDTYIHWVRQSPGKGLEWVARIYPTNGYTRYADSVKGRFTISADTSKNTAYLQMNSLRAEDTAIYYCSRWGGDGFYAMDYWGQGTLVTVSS
Chain of anti-HER2 memAb (trastuzumab-based, meditope-enabled anti-HER2 antibody) (VL, as listed by the source, chain 2 of 2): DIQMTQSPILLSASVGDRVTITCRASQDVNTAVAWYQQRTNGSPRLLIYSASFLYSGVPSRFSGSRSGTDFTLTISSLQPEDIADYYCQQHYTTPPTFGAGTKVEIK

Chain of Ile83Glu anti-HER2 memAb (VH, as listed by the source, chain 1 of 2): as the sequence (VH, as listed by the source, chain 1 of 2) above
Chain of Ile83Glu anti-HER2 memAb (VL, as listed by the source, chain 2 of 2): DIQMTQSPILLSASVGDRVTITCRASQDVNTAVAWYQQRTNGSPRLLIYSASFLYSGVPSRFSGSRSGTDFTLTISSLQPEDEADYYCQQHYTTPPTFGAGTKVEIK

| Binder | Kd [1] | Kd [2] |
| --- | --- | --- |
| CQFDLSTRRLKC (disulfide 1-12 (inferred)) [original meditope (CQFDLSTRRLKC)] | 20 nM | – |
| B1 | – | 39 nM |

From article PMC5910394 (2018)
